Assay results taken from patent publication US20100092465A1, “TREATMENT OF GRAFT-VERSUS-HOST DISEASE” (priority 2006, published 2010).

Experiments:
[1] = target: T1, mouse ligand (single-chain IL27) (Mus musculus, UniProt O35228+Q8K3I6); assay: SPR kinetics of soluble receptors with mouse IL27 ligand; conditions: binding with mouse ligand; gp130 not included
T1 construct: amino-terminal peptide tag (FLAG in lot A1426F) (N)
T1 sequence (O35228+Q8K3I6 with tags, fused parts or gaps): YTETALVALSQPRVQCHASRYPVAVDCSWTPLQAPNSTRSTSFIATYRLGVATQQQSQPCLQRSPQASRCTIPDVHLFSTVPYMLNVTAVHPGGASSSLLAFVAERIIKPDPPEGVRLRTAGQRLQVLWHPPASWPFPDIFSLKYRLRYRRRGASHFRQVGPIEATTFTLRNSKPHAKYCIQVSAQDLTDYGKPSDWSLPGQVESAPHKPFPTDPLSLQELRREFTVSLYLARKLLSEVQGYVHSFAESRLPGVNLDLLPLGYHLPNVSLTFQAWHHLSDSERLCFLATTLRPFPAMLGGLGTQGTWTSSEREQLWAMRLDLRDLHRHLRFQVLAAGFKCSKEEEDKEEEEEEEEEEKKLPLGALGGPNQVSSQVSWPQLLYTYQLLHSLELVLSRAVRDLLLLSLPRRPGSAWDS
Experimental: Kinetic rate and affinity constant values for the mouse (IL27RAm(mFc1), Example 3) and human (IL27RA-Fc5, Example 4) soluble receptors were obtained by surface plasmon resonance (SPR) using an automated instrument (BIACORE 3000; Biacore International AB, Uppsala, Sweden). The mouse soluble receptor was tested against mouse ligand (lot A1418F), and the human soluble receptor was tested against both mouse (A1426F) and human (A1534F) ligands. For determination of the kinetic rate constants for the receptor-ligand interactions, the gp130 molecule was not included as part of the receptor complex.
The IL27 ligands used in this study were single-chain molecules comprising EBI3 connected by its C-terminus to the N-terminus of IL-27 p28 via a polypeptide linker. Each of the ligands included an amino-terminal peptide tag.
For the mouse IL27RA study, the soluble receptor was captured onto the chip surface by an isotype-specific anti-mouse Fc antibody (obtained from Jackson ImmunoResearch Laboratories, Inc., West Grove, Pa.) covalently immobilized to the chip (BIACORE CM5 chip) using the standard amine coupling protocol specified by the instrument manufacturer. […]
All data were assessed using software provided with the instrument (BIACORE Evaluation software v. 3.2). […]

[2] = target: T2, huIL-27 (Homo sapiens, UniProt Q14213+Q8NEV9); assay: Phospho-STAT3 neutralization assay, mouse spleens, huIL-27; format: cell-based; conditions: Mouse Spleens; ligand huIL-27 at EC90
T2 sequence (Q14213 21-229): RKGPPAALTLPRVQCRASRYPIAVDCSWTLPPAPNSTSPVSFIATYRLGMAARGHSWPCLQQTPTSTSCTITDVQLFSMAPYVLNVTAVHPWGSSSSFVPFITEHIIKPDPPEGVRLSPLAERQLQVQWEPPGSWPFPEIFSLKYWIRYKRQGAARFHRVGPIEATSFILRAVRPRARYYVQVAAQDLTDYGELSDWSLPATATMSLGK
T2 sequence (Q8NEV9 29-243): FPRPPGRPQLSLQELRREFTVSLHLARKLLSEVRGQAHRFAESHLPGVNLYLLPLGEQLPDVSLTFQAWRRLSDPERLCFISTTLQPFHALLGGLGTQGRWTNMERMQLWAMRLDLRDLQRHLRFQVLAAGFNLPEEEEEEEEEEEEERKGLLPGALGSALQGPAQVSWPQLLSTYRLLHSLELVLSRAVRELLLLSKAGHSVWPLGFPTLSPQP
Text: Whole mouse spleens were harvested from C57 B1/6 mice and washed two times with 1×PBS before being plated out at 2×10^5 cells/well in assay media (RPMI 1640 plus 10% fetal bovine serum) in 96-well, round-bottom tissue culture plates. Total human PBMC (peripheral blood mononuclear cells) were thawed from a frozen vial collected from a leukapherisis donation and washed two times with 1×PBS before being plated out at 10^6 cells/well in assay media in 96-well, round-bottom tissue culture plates. […] Following pre-incubation, treatments were added to the plates containing the cells and incubated together at 37° C. for 15 minutes.
Following incubation, cells were washed with ice-cold wash buffer (BIO-PLEX Cell Lysis Kit, BIO-RAD Laboratories, Hercules, Calif.) and put on ice to stop the reaction according to manufacturer's instructions. […]
Capture beads (BIO-PLEX Phospho-Stat3 Assay, BIO-RAD Laboratories) were combined with 50 μL of 1:1 diluted lysates and added to a 96-well filter plate according to manufacture's instructions (BIO-PLEX Phosphoprotein Detection Kit, BIO-RAD Laboratories). […] After the final wash, beads were resuspended in 125 μL/well of bead suspension buffer, shaken for 30 seconds, and read on an array reader (BIO-PLEX, BIO-RAD Laboratories) according to the manufacture's instructions. Data were analyzed using analytical softward (BIO-PLEX MANAGER 3.0, BIO-RAD Laboratories). […]

ka [1]: 8.1e+06 M⁻¹ s⁻¹ | kd [1]: 0.0018 s⁻¹ | IC50 [2]: 320 pM
Substance: human IL-27RA-Fc5: human IL27RA extracellular domain (amino acids 1 to 512 of SEQ ID NO:5) fused to Fc5, effector minus human gamma1 Fc; SEQ ID NO:3
